# T1: androgen receptor (Mus musculus, UniProt P19091)
# T1 construct: An androgen-dependent mouse breast cancer cell SC-3 cell; endogenous in cells; host or cells: SC-3 mouse breast cancer cells
# T1 sequence (P19091 1-899): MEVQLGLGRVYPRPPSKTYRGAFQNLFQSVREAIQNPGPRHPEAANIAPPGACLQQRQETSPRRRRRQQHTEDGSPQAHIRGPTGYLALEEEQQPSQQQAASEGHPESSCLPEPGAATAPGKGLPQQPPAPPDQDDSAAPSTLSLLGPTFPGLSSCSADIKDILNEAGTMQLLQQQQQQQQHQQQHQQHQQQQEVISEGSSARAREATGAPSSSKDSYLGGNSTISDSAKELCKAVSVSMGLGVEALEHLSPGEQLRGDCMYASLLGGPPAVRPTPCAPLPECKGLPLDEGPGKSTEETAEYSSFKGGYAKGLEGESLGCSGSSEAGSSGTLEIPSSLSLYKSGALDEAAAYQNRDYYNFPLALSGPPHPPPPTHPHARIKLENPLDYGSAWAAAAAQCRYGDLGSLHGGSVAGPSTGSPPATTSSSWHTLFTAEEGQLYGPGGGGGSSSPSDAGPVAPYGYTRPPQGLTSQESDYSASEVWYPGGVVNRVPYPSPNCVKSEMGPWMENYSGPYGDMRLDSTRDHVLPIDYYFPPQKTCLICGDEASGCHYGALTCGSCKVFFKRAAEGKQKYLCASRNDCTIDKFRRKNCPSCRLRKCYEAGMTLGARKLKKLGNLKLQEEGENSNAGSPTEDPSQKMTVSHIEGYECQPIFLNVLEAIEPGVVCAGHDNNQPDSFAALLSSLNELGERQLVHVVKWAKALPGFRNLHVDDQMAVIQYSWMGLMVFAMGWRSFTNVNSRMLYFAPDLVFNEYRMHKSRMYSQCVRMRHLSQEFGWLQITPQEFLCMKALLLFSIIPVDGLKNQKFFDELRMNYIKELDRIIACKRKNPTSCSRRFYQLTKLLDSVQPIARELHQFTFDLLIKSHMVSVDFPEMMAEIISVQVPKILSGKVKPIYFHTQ
# How the values were obtained:
# [1] = tested on: testosterone 5α-reductase; assay: Testosterone 5α-reductase blocking test; type: biochemical; conditions: result in words; enzyme solution S-9; FIG. 1
# Protocol: 1. 0.5 ml of 5 mM Tris-HCl buffer solution (pH 7.2) was added to 0.1 ml of 3.0 mM testosterone solution (dissolved in propylene glycol).
# 2. Further, 0.1 ml of 6.7 mM NADPH solution (dissolved in 5 mM Tris-HCl buffer solution (pH 7.2)) and 0.05 ml of a sample solution (dissolved in 50% ethanol) were added thereto, the mixture was preheated at 37° C. and 0.1 ml of an enzyme solution (S-9, Oriental Yeast Co., Ltd.) was added to incubate for 1 hour.
# In this test, cow's lactoferrin was prepared to be used as the lactoferrin, and saw palmetto was used as a control.
# 3. Then, 3 ml of dichloromethane was added to terminate the reaction, 0.5 ml of an internal standard solution (0.1 mg/ml of p-hydroxybenzoic acid n-hexyl ester) was added thereto followed by shaking for 10 minutes, and the mixture was centrifuged at 3000 rpm for 10 minutes.
# 4. The dichloromethane layer was separated, collected and dried under reduced pressure. […] The residual testosterone was measured by HPLC from the obtained sample solution.
# The measurement was carried out by eluting with methanol/water (65/35) and monitoring at 254 nm under the conditions of using a YMC A-302 (internal diameter 4.6×150 mm) column at a column temperature of 40° C. at a flow rate of 1 ml/min. The measurement was carried out using the internal standard substance method and the blocking rate (%) was determined using the following formula. […]
# androgen receptor = target: T1, androgen receptor; assay: Androgen receptor binding blocking test (DHT-dependent proliferation of SC-3 cells, MTT assay); type: cell-based; conditions: SC-3 cell, 10^−8M DHT, FIG. 2
# Protocol: 24 Hours later, the culture medium was exchanged with HMB medium (0.1% BSA-containing Ham F12+MEM medium) to which the test sample and 10^−8M DHT were added, and the cell was cultured for 48 hours.
# Then, in accordance with MTT assay, the cell proliferation was evaluated by measuring the absorbance at 570 nm, which is the absorption maximum of blue formazan.
# To correct the influence of adherent cells, the absorbance at 650 nm was also measured simultaneously, and the difference between both absorbances was used as the produced amount of blue formazan. At the same time with the above, to examine the effect of the sample alone on SC-3 cell, the same culture and measurement were carried out by adding the sample alone, without adding DHT, to the HMB medium. […] Based on the measurement results, the binding blocking rate representing the anti-androgenic activity was determined using the following formula. […]
# A: The absorbance when DHT was added but the sample was not added
# B: The absorbance when DHT was not added and the sample was not added
# C: The absorbance when DHT was added and the sample was added
# D: The absorbance when DHT was not added but the sample was added
# hamster sebocytes = assay: Sebocyte culture test (sebum synthesis amount, Oil Red O staining); type: cell-based, golden hamster; conditions: medium with 1×10^−6M testosterone; for sebum synthesis amount suppressed to: about 2 weeks, FIG. 3
# Protocol: 1. The test was carried out using a hamster sebocyte culture kit KB-1000 (manufactured by KURABO […] LTD.).
# The sebocyte cell derived from the auricula of a normal golden hamster was inoculated in a 24-well plate in a density of 5.0×10^4 cells/well. During the test, the cell was cultured in medium containing testosterone in a concentration of 1×10^−6M.
# 2. The cell was cultured for several days until confluent, and the medium was exchanged with medium containing the test sample. The medium was exchanged with sample medium every other day and the culture was continued for about 2 weeks.
# In this test, cow's lactoferrin was prepared to be used as the lactoferrin, and spironolactone was used as a control.
# 3. Then, using a sebum synthesis assay kit SE-3001 (manufactured by KURABO […], LTD.), a WST-8 solution was added to each well and incubated for 30 minutes at 37° C. The supernatant was assayed at a wavelength of 450 nm, and the number of viable cell was counted.
# 4. Further, the supernatant was stained with Oil Red O and observed under a microscope while extracted with 100% isopropanol and measured at a wavelength of 520 nm for the lipid synthesis amount.
# The correction was made using the following formula, and the lipid synthesis amount per cell was compared.
# Comparison of lipid synthesis amount per cell=absorbance B/absorbance A
# Absorbance A: cell number measured value (450 nm)
# Absorbance B: lipid synthesis amount measured value (520 nm)
molecule,measurement,setting,value
"lactoferrin (protein, UniProt P24627 20-708, looked up, cow's lactoferrin; protein present in secretory fluids such as milk, tears, saliva, bile of mammals) Lactotransferrin: APRKNVRWCTISQPEWFKCRRWQWRMKKLGAPSITCVRRAFALECIRAIAEKKADAVTLDGGMVFEAGRDPYKLRPVAAEIYGTKESPQTHYYAVAVVKKGSNFQLDQLQGRKSCHTGLGRSAGWIIPMGILRPYLSWTESLEPLQGAVAKFFSASCVPCIDRQAYPNLCQLCKGEGENQCACSSREPYFGYSGAFKCLQDGAGDVAFVKETTVFENLPEKADRDQYELLCLNNSRAPVDAFKECHLAQVPSHAVVARSVDGKEDLIWKLLSKAQEKFGKNKSRSFQLFGSPPGQRDLLFKDSALGFLRIPSKVDSALYLGSRYLTTLKNLRETAEEVKARYTRVVWCAVGPEEQKKCQQWSQQSGQNVTCATASTTDDCIVLVLKGEADALNLDGGYIYTAGKCGLVPVLAENRKSSKHSSLDCVLRPTEGYLAVAVVKKANEGLTWNSLKDKKSCHTAVDRTAGWNIPMGLIVNQTGSCAFDEFFSQSCAPGADPKSRLCALCAGDDQGLDKCVPNSKEKYYGYTGAFRCLAEDVGDVAFVKNDTVWENTNGESTADWAKNLNREDFRLLCLDGTRKPVTEAQSCHLAVAPNHAVVSRSDRAAHVKQVLLHQQALFGKNGKNCPDKFCLFKSETKNLLFNDNTECLAKLGGRPTYEEYLGTEYVTAIANLKKCSTSPLLEACAFLTR",testosterone 5α-reductase blocking activity,[1],no testosterone 5α-reductase blocking activity
same,binding blocking activity (binding blocking rate),"androgen receptor; concentration of 60 ppm, 48 hours",about 85%
same,"binding blocking activity, concentration dependence",androgen receptor; result in words,concentration-dependent binding blocking activity
same,sebum synthesis amount suppressed to,hamster sebocytes; 10 ppm,60%
same,sebum synthesis amount suppressed to,hamster sebocytes; 20 ppm,60%
same,"sebum synthesis amount, concentration dependence","hamster sebocytes; result in words, microscopic observation and absorbance measurement",suppressed the sebum synthesis amount in a concentration-dependent manner
